Legend:
[1] = target: T1, CD37 (UniProt P11049 1-281, limits assumed); test: flow cytometry, anti-HIS antibody
T1 construct: whole, on cells
T1 sequence (looked up): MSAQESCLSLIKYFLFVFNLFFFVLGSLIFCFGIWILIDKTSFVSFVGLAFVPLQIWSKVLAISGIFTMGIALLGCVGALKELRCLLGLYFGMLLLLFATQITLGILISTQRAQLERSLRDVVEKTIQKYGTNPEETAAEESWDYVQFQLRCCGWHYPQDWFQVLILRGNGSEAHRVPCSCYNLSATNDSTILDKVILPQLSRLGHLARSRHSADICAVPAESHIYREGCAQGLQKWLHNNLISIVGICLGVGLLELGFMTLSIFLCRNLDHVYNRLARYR

[2] = target: T2, CD79B (UniProt P40259 29-229, limits assumed); test: flow cytometry, anti-HIS antibody
T2 construct: whole, on cells
T2 sequence (looked up): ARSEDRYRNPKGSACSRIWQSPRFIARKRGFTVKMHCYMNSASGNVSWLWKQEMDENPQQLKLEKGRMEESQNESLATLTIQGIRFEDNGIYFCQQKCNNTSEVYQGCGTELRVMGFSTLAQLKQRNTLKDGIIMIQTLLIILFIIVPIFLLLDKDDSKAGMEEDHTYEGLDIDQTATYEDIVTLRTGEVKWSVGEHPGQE

[3] = target: T3, ROR1 (UniProt Q01973 30-937, limits assumed); test: flow cytometry, anti-HIS antibody
T3 construct: whole, on cells

[4] = target: T4, CD33 (UniProt P20138 18-364, limits assumed); test: flow cytometry, anti-HIS antibody
T4 construct: whole, on cells; Endogenous on human cell lines; also called Siglec-3

[5] = target: T5, CD123 (UniProt P26951 19-378, limits assumed); test: flow cytometry, anti-HIS antibody
T5 construct: whole, on cells; also called IL3RA

[6] = target: T6, CD135 (UniProt P36888 27-993, limits assumed); test: flow cytometry, anti-HIS antibody
T6 construct: whole, on cells; also called FLT-3

[7] = target: T7, BCMA (UniProt Q02223 1-184, limits assumed); test: flow cytometry, anti-HIS antibody
T7 construct: whole, on cells
T7 sequence (looked up): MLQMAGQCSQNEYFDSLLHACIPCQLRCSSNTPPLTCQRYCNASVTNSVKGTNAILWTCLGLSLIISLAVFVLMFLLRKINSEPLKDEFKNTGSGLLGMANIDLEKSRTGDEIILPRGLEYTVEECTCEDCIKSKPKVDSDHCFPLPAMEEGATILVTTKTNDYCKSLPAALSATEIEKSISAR

[8] = target: T8, EGFR (UniProt P00533 25-1210); test: flow cytometry, anti-HIS antibody
T8 construct: whole, on cells

[9] = target: T9, CD22 (UniProt P20273 20-847, limits assumed); test: flow cytometry, anti-HIS antibody
T9 construct: whole, on cells

[10] = target: T10, CD70 (UniProt P32970 1-193, limits assumed); test: flow cytometry, anti-HIS antibody
T10 construct: whole, on cells
T10 sequence (looked up): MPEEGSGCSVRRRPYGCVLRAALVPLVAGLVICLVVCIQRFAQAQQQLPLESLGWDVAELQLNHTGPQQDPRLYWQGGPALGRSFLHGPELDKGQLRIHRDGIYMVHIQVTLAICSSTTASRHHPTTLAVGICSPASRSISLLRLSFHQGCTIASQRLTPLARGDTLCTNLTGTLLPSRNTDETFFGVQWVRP

[11] = target: T9, CD22; test: flow cytometry (data not shown)
[12] = target: T11, CD16 (human, UniProt P08637 17-254); test: binding to NK cells (method not told)
T11 construct: whole, on cells; CD16 is the antigen of the 3G8 arm of these molecules; also called FcγRIII
T11 sequence (P08637 17-254): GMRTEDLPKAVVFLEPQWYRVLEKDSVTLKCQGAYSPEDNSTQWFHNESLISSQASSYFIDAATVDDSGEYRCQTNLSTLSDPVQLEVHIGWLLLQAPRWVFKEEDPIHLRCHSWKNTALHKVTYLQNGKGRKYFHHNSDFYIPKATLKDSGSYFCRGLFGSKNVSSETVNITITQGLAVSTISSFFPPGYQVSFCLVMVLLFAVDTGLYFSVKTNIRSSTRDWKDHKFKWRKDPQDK

T4 sequence (P20138 18-364 limits assumed): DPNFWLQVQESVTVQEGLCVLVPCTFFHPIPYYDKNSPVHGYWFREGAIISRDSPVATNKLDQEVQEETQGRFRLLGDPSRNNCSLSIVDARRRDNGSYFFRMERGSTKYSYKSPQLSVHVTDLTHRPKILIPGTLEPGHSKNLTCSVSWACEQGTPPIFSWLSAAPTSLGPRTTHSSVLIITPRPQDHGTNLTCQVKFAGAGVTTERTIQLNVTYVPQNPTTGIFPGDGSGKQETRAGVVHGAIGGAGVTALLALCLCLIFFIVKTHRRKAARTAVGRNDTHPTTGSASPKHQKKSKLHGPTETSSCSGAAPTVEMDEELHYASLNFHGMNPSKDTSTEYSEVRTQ
T5 sequence (P26951 19-378 limits assumed): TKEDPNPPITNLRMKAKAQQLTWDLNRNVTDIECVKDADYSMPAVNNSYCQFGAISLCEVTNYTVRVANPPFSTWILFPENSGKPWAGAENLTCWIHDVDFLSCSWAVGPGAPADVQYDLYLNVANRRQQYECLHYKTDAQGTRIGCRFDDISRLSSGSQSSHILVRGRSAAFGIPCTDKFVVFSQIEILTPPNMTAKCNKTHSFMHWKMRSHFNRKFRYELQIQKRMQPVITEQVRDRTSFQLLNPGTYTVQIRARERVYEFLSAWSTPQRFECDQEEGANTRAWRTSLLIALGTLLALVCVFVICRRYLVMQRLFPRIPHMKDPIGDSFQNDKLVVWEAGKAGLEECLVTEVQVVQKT

B1: CD37 bridging molecule derived from otlertuzumab (Fab, V domains shown)
VH: EVQLVQSGAEVKKPGESLKISCKGSGYSFTGYNMNWVRQMPGKGLEWMGNIDPYYGGTTYNRKFKGQVTISADKSISTAYLQWSSLKASDTAMYYCARSVGPFDSWGQGTLVTVSS
VL: EIVLTQSPATLSLSPGERATLSCRASENVYSYLAWYQQKPGQAPRLLIYFAKTLAEGIPARFSGSGSGTDFTLTISSLEPEDFAVYYCQHHSDNPWTFGQGTKVEIKR
notes: Fab with E200 at the N-terminus of the light chain, 6xHis on both chains; also called B026; CD37, Otlertuzumab, B026-1_LC / B026-2_HC
B1: binds [1].

B2: CD79B bridging molecule derived from polatuzumab (Fab, V domains shown)
VH: EVQLVESGGGLVQPGGSLRLSCAASGYTFSSYWIEWVRQAPGKGLEWIGEILPGGGDTNYNEIFKGRATFSADTSKNTAYLQMNSLRAEDTAVYYCTRRVPIRLDYWGQGTLVTVSS
VL: DIQLTQSPSSLSASVGDRVTITCKASQSVDYEGDSFLNWYQQKPGKAPKLLIYAASNLESGVPSRFSGSGSGTDFTLTISSLQPEDFATYYCQQSNEDPLTFGQGTKVEIKR
notes: Fab with E200 at the N-terminus of the light chain, 6xHis on both chains; also called B025; CD79B, Polatuzumab, B025-1 LC / B025-2_HC
B2: binds [2].

B3: ROR1 bridging molecule derived from ROR1 APC (WO2016016344A1_D10v3) (Fab, V domains shown)
VH: QVQLKESGPGLVAPSQTLSITCTVSGFSLTSYGVHWVRQPPGKGLEWLGVIWAGGFTNYNSALKSRLSISKDNSKSQVLLKMTSLQTDDTAMYYCARRGSSYSMDYWGQGTSVTVSS
VL: EIVLSQSPAITAASLGQKVTITCSASSNVSYIHWYQQRSGTSPRPWIYEISKLASGVPVRFSGSGSGTSYSLTISSMEAEDAAIYYCQQWNYPLITFGSGTKLEIQR
notes: Fab with E200 at the N-terminus of the light chain, 6xHis on both chains; also called B044; ROR-1, clone D10v3, B044-1 LC / B044-2_HC
B3: binds [3].

B4: CD33 BRiDGE (B031) (Fab, V domains shown)
VH: QVQLVQSGAEVKKPGSSVKVSCKASGYTFTDYNMHWVRQAPGQGLEWIGYIYPYNGGTGYNQKFKSKATITADESTNTAYMELSSLRSEDTAVYYCARGRPAMDYWGQGTLVTVSS
VL: DIQMTQSPSSLSASVGDRVTITCRASESVDNYGISFMNWFQQKPGKAPKLLIYAASNQGSGVPSRFSGSGSGTDFTLTISSLQPDDFATYYCQQSKEVPWTFGQGTKVEIKR
notes: 6xHis on both chains; also called CD33 bridging molecule; CD33 Fab
B4: binds [4].

B5: CD123 bridging molecule derived from clone 32716 (Fab, V domains shown)
VH: QIQLVQSGPELKKPGETVKISCKASGYIFTNYGMNWVKQAPGKSFKWMGWINTYTGESTYSADFKGRFAFSLETSASTAYLHINDLKNEDTATYFCARSGGYDPMDYWGQGTSVTVSS
VL: DIVLTQSPASLAVSLGQRATISCRASESVDNYGNTFMHWYQQKPGQPPKLLIYRASNLESGIPARFSGSGSRTDFTLTINPVEADDVATYYCQQSNEDPPTFGAGTKLELKR
notes: Fab with E200 at the N-terminus of the light chain, 6xHis on both chains; also called B042; CD123, clone 32716, B042-1_LC / B042-2_HC
B5: binds [5].

B6: CD135 bridging molecule derived from 4G8 (Fab, V domains shown)
VH: QVQLQQPGAELVKPGASLKLSCKSSGYTFTSYWMHWVRQRPGHGLEWIGEIDPSDSYKDYNQKFKDKATLTVDRSSNTAYMHLSSLTSDDSAVYYCARAITTTPFDFWGQGTTLTVSS
VL: DIVLTQSPATLSVTPGDSVSLSCRASQSISNNLHWYQQKSHESPRLLIKYASQSISGIPSRFSGSGSGTDFTLSINSVETEDFGVYFCQQSNTWPYTFGGGTKLEIKR
notes: Fab with E200 at the N-terminus of the light chain, 6xHis on both chains; also called B041; CD135, clone 4G8, B041-1_LC / B041-2_HC
B6: binds [6].

B7: BCMA bridging molecule derived from clone CA8 J9M0 (Fab, V domains shown)
VH: QVQLVQSGAEVKKPGSSVKVSCKGSGYTFTNYWMHWVRQAPGQGLEWIGATYRGHSDTYYNQKFKGRATLTADTSTSTAYMELSSLRSEDTAVYYCTRGAIYDGYDVLDNWGQGTLVTVSS
VL: DIQMTQSPSSLSASVGDRVTITCSASQDISNYLNWYQQKPGKAPKLLIYYTSNLHSGVPSRFSGSGSGTDFTLTISSLQPEDFATYYCQQYRKLPWTFGQGTKLEIKR
notes: Fab with E200 at the N-terminus of the light chain, 6xHis on both chains; also called B039; BCMA, clone CA8 J9M0, B039-1_LC / B039-2_HC
B7: binds [7].

B8: EGFR bridging molecule derived from matuzumab (Fab, V domains shown)
VH: QVQLVQSGAEVKKPGASVKVSCKASGYTFTSHWMHWVRQAPGQGLEWIGEFNPSNGRTNYNEKFKSKATMTVDTSTNTAYMELSSLRSEDTAVYYCASRDYDYDGRYFDYWGQGTLVTVSS
VL: DIQMTQSPSSLSASVGDRVTITCSASSSVTYMYWYQQKPGKAPKLLIYDTSNLASGVPSRFSGSGSGTDYTFTISSLQPEDIATYYCQQWSSHIFTFGQGTKVEIKR
notes: also called B035; EGFR, Matuzumab, B035-1_LC / B035-2_HC
B8: binds [8].

B9: CD22 bridging molecule derived from m971-L7 (Fab, V domains shown)
VH: QVQLQQSGPGMVKPSQTLSLTCAISGDSVSSNSVAWNWIRQSPSRGLEWLGRTYYRSTWYNDYAVSMKSRITINPDTNKNQFSLQLNSVTPEDTAVYYCAREVTGDLEDAFDIWGQGTMVTVSS
VL: DIQMIQSPSSLSASVGDRVTITCRASQTIWSYLNWYRQRPGEAPNLLIYAASSLQSGVPSRFSGRGSGTDFTLTISSLQAEDFATYYCQQSYSIPQTFGQGTKLEIKR
notes: Fab with E200 at the N-terminus of the light chain, 6xHis on both chains; also called B023; CD22, m971-L7, B023-1 LC / B023-2_Heavy Chain
B9: binds [9].

B10: CD70 bridging molecule derived from cusatuzumab (Fab, V domains shown)
VH: EVQLVESGGGLVQPGGSLRLSCAASGFTFSVYYMNWVRQAPGKGLEWVSDINNEGGTTYYADSVKGRFTISRDNSKNSLYLQMNSLRAEDTAVYYCARDAGYSNHVPIFDSWGQGTLVTVSS
VL: SQAVVTQEPSLTVSPGGTVTLTCGLKSGSVTSDNFPTWYQQTPGQAPRLLIYNTNTRHSGVPDRFSGSILGNKAALTITGAQADDEAEYFCALFISNPSVEFGGGTQLTVLK
notes: Fab with E200 at the N-terminus of the light chain, 6xHis on both chains; also called B028; CD70, Cusatuzumab, B028-1_LC / B028-2_HC
B10: binds [10].

B11: CD22 bridging molecule derived from inotuzumab (Fab, V domains shown)
VH: EVQLVQSGAEVKKPGASVKVSCKASGYRFTNYWIHWVRQAPGQGLEWIGGINPGNNYATYRRKFQGRVTMTADTSTSTVYMELSSLRSEDTAVYYCTREGYGNYGAWFAYWGQGTLVTVSS
VL: DVQVTQSPSSLSASVGDRVTITCRSSQSLANSYGNTFLSWYLHKPGKAPQLLIYGISNRFSGVPDRFSGSGSGTDFTLTISSLQPEDFATYYCLQGTHQPYTFGQGTKVEIKR
notes: also called B024; CD22, Inotuzumab, B024-1_LC / B024-2_HC
B11: binds [11].

B12: OR_BiKE1 OR105 (nfP2X7 x CD16) (bispecific antibody)
chain: DIQMTQSPSSLSASVGDRVTITCRASQYIYDYLNWYQQKPGKAPKLLIYAASYLQSGVPSRFSGSGSGTDFTLTISSLQPEDFATYYCQQYHHPSTFGQGTKVEIKRGGGGSGGGGSGGGGSEVQLLESGGGLVQPGGSLRLSCAASGFTFRNHDMGWVRQAPGKGLEWVSAISGSGGSTYYANSVKGRFTISRDNSKNTLYLQMNSLRAEDTAVYYCAEPKPMDTEFDYRSPGTLVTVSSVEGGSGGSGGSGGSGGVDQVTLKESGPGILQPSQTLSLTCSFSGFSLRTSGMGVGWIRQPSGKGLEWLAHIWWDDDKRYNPALKSRLTISKDTSSNQVFLKIASVDTADTATYYCAQINPAWFAYWGQGTLVTVSSGGGGSGGGGSGGGGSDIVLTQSPASLAVSLGQRATISCKASQSVDFDGDSFMNWYQQKPGQPPKLLIYTTSNLESGIPARFSASGSGTDFTLNIHPVEEEDTATYYCQQSNEDPYTFGGGTKLEIKHHHHHH
B12: binds [12].

B13: OR_BiKE2 OR106 (CD16 x nfP2X7) (bispecific antibody)
chain: DIVLTQSPASLAVSLGQRATISCKASQSVDFDGDSFMNWYQQKPGQPPKLLIYTTSNLESGIPARFSASGSGTDFTLNIHPVEEEDTATYYCQQSNEDPYTFGGGTKLEIKGGGGSGGGGSGGGGSQVTLKESGPGILQPSQTLSLTCSFSGFSLRTSGMGVGWIRQPSGKGLEWLAHIWWDDDKRYNPALKSRLTISKDTSSNQVFLKIASVDTADTATYYCAQINPAWFAYWGQGTLVTVSSVEGGSGGSGGSGGSGGVDEVQLLESGGGLVQPGGSLRLSCAASGFTFRNHDMGWVRQAPGKGLEWVSAISGSGGSTYYANSVKGRFTISRDNSKNTLYLQMNSLRAEDTAVYYCAEPKPMDTEFDYRSPGTLVTVSSGGGGSGGGGSGGGGSDIQMTQSPSSLSASVGDRVTITCRASQYIYDYLNWYQQKPGKAPKLLIYAASYLQSGVPSRFSGSGSGTDFTLTISSLQPEDFATYYCQQYHHPSTFGQGTKVEIKRHHHHHH
notes: 3G8 scFv-linker-BIL03/WTB1 scFv-6xHis
B13: binds [12].

From patent US20240368282A1 (BIOSCEPTRE AUST, published 2024)
